Experimental data: patent publication US20180371086A1

Molecular target: human CD3, on primary human T cells (human) (UniProt P07766)
Test: cell-based or functional assay

Sequence of human CD3, on primary human T cells (human) (P07766 23-207 limits assumed): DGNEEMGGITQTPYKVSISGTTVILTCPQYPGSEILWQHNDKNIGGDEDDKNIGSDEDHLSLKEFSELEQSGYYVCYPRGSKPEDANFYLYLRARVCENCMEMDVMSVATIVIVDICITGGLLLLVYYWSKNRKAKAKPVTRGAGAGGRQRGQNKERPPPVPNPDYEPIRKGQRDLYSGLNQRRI

Substance: PGT-121.60 (antibody)
- CD25 EC50; CD4 T cells; donor D1597; 7552-infected CEM cells: > 100 µg/mL
- CD25 EC50; CD4 T cells; donor D1597; THRO-infected CEM cells: > 100 µg/mL
- CD25 EC50; CD4 T cells; donor D1597; uninfected CEM cells: > 100 µg/mL
- CD25 EC50; CD4 T cells; donor D2256; 7552-infected CEM cells: > 100 µg/mL
- CD25 EC50; CD4 T cells; donor D2256; THRO-infected CEM cells: > 100 µg/mL
- CD25 EC50; CD4 T cells; donor D2256; uninfected CEM cells: > 100 µg/mL
- CD25 EC50; CD4 T cells; donor D4246; 7552-infected CEM cells: > 100 µg/mL
- CD25 EC50; CD4 T cells; donor D4246; THRO-infected CEM cells: > 100 µg/mL
- CD25 EC50; CD4 T cells; donor D4246; uninfected CEM cells: > 100 µg/mL
- CD25 EC50; CD4 T cells; donor D4279; 7552-infected CEM cells: > 100 µg/mL
- CD25 EC50; CD4 T cells; donor D4279; THRO-infected CEM cells: > 100 µg/mL
- CD25 EC50; CD4 T cells; donor D4279; uninfected CEM cells: > 100 µg/mL
- CD25 EC50; CD8 T cells; donor D1597; 7552-infected CEM cells: > 100 µg/mL
- CD25 EC50; CD8 T cells; donor D1597; THRO-infected CEM cells: > 100 µg/mL
- CD25 EC50; CD8 T cells; donor D1597; uninfected CEM cells: > 100 µg/mL
- CD25 EC50; CD8 T cells; donor D2256; 7552-infected CEM cells: > 100 µg/mL
- CD25 EC50; CD8 T cells; donor D2256; THRO-infected CEM cells: > 100 µg/mL
- CD25 EC50; CD8 T cells; donor D2256; uninfected CEM cells: > 100 µg/mL
- CD25 EC50; CD8 T cells; donor D4246; 7552-infected CEM cells: > 100 µg/mL
- CD25 EC50; CD8 T cells; donor D4246; THRO-infected CEM cells: > 100 µg/mL
- CD25 EC50; CD8 T cells; donor D4246; uninfected CEM cells: > 100 µg/mL
- CD25 EC50; CD8 T cells; donor D4279; 7552-infected CEM cells: > 100 µg/mL
- CD25 EC50; CD8 T cells; donor D4279; THRO-infected CEM cells: > 100 µg/mL
- CD25 EC50; CD8 T cells; donor D4279; uninfected CEM cells: > 100 µg/mL
- CD25 Δ Emax; CD4 T cells; donor D1597; 7552-infected CEM cells: 0%
- CD25 Δ Emax; CD4 T cells; donor D1597; THRO-infected CEM cells: -2%
- CD25 Δ Emax; CD4 T cells; donor D1597; uninfected CEM cells: 3%
- CD25 Δ Emax; CD4 T cells; donor D2256; 7552-infected CEM cells: 2%
- CD25 Δ Emax; CD4 T cells; donor D2256; THRO-infected CEM cells: -1%
- CD25 Δ Emax; CD4 T cells; donor D2256; uninfected CEM cells: -1%
- CD25 Δ Emax; CD4 T cells; donor D4246; 7552-infected CEM cells: -2%
- CD25 Δ Emax; CD4 T cells; donor D4246; THRO-infected CEM cells: -2%
- CD25 Δ Emax; CD4 T cells; donor D4246; uninfected CEM cells: 0%
- CD25 Δ Emax; CD4 T cells; donor D4279; 7552-infected CEM cells: -1%
- CD25 Δ Emax; CD4 T cells; donor D4279; THRO-infected CEM cells: -2%
- CD25 Δ Emax; CD4 T cells; donor D4279; uninfected CEM cells: 0%
- CD25 Δ Emax; CD8 T cells; donor D1597; 7552-infected CEM cells: -1%
- CD25 Δ Emax; CD8 T cells; donor D1597; THRO-infected CEM cells: 0%
- CD25 Δ Emax; CD8 T cells; donor D1597; uninfected CEM cells: 0%
- CD25 Δ Emax; CD8 T cells; donor D2256; 7552-infected CEM cells: 0%
- CD25 Δ Emax; CD8 T cells; donor D2256; THRO-infected CEM cells: -1%
- CD25 Δ Emax; CD8 T cells; donor D2256; uninfected CEM cells: 0%
- CD25 Δ Emax; CD8 T cells; donor D4246; 7552-infected CEM cells: 1%
- CD25 Δ Emax; CD8 T cells; donor D4246; THRO-infected CEM cells: 0%
- CD25 Δ Emax; CD8 T cells; donor D4246; uninfected CEM cells: 0%
- CD25 Δ Emax; CD8 T cells; donor D4279; 7552-infected CEM cells: 0%
- CD25 Δ Emax; CD8 T cells; donor D4279; THRO-infected CEM cells: 1%
- CD25 Δ Emax; CD8 T cells; donor D4279; uninfected CEM cells: 0%
- CD69 EC50; CD4 T cells; donor D1597; 7552-infected CEM cells: > 100 µg/mL
- CD69 EC50; CD4 T cells; donor D1597; THRO-infected CEM cells: > 100 µg/mL
- CD69 EC50; CD4 T cells; donor D1597; uninfected CEM cells: > 100 µg/mL
- CD69 EC50; CD4 T cells; donor D2256; 7552-infected CEM cells: > 100 µg/mL
- CD69 EC50; CD4 T cells; donor D2256; THRO-infected CEM cells: > 100 µg/mL
- CD69 EC50; CD4 T cells; donor D2256; uninfected CEM cells: > 100 µg/mL
- CD69 EC50; CD4 T cells; donor D4246; 7552-infected CEM cells: > 100 µg/mL
- CD69 EC50; CD4 T cells; donor D4246; THRO-infected CEM cells: > 100 µg/mL
- CD69 EC50; CD4 T cells; donor D4246; uninfected CEM cells: > 100 µg/mL
- CD69 EC50; CD4 T cells; donor D4279; 7552-infected CEM cells: > 100 µg/mL
- CD69 EC50; CD4 T cells; donor D4279; THRO-infected CEM cells: > 100 µg/mL
- CD69 EC50; CD4 T cells; donor D4279; uninfected CEM cells: > 100 µg/mL
- CD69 EC50; CD8 T cells; donor D1597; 7552-infected CEM cells: > 100 µg/mL
- CD69 EC50; CD8 T cells; donor D1597; THRO-infected CEM cells: > 100 µg/mL
- CD69 EC50; CD8 T cells; donor D1597; uninfected CEM cells: > 100 µg/mL
- CD69 EC50; CD8 T cells; donor D2256; 7552-infected CEM cells: > 100 µg/mL
- CD69 EC50; CD8 T cells; donor D2256; THRO-infected CEM cells: > 100 µg/mL
- CD69 EC50; CD8 T cells; donor D2256; uninfected CEM cells: > 100 µg/mL
- CD69 EC50; CD8 T cells; donor D4246; 7552-infected CEM cells: > 100 µg/mL
- CD69 EC50; CD8 T cells; donor D4246; THRO-infected CEM cells: > 100 µg/mL
- CD69 EC50; CD8 T cells; donor D4246; uninfected CEM cells: > 100 µg/mL
- CD69 EC50; CD8 T cells; donor D4279; 7552-infected CEM cells: > 100 µg/mL
- CD69 EC50; CD8 T cells; donor D4279; THRO-infected CEM cells: > 100 µg/mL
- CD69 EC50; CD8 T cells; donor D4279; uninfected CEM cells: > 100 µg/mL
- CD69 Δ Emax; CD4 T cells; donor D1597; 7552-infected CEM cells: 0%
- CD69 Δ Emax; CD4 T cells; donor D1597; THRO-infected CEM cells: 0%
- CD69 Δ Emax; CD4 T cells; donor D1597; uninfected CEM cells: 1%
- CD69 Δ Emax; CD4 T cells; donor D2256; 7552-infected CEM cells: 0%
- CD69 Δ Emax; CD4 T cells; donor D2256; THRO-infected CEM cells: 0%
- CD69 Δ Emax; CD4 T cells; donor D2256; uninfected CEM cells: 0%
- CD69 Δ Emax; CD4 T cells; donor D4246; 7552-infected CEM cells: 3%
- CD69 Δ Emax; CD4 T cells; donor D4246; THRO-infected CEM cells: 1%
- CD69 Δ Emax; CD4 T cells; donor D4246; uninfected CEM cells: -1%
- CD69 Δ Emax; CD4 T cells; donor D4279; 7552-infected CEM cells: 3%
- CD69 Δ Emax; CD4 T cells; donor D4279; THRO-infected CEM cells: 0%
- CD69 Δ Emax; CD4 T cells; donor D4279; uninfected CEM cells: 0%
- CD69 Δ Emax; CD8 T cells; donor D1597; 7552-infected CEM cells: 0%
- CD69 Δ Emax; CD8 T cells; donor D1597; THRO-infected CEM cells: 0%
- CD69 Δ Emax; CD8 T cells; donor D1597; uninfected CEM cells: 0%
- CD69 Δ Emax; CD8 T cells; donor D2256; 7552-infected CEM cells: 0%
- CD69 Δ Emax; CD8 T cells; donor D2256; THRO-infected CEM cells: 0%
- CD69 Δ Emax; CD8 T cells; donor D2256; uninfected CEM cells: 0%
- CD69 Δ Emax; CD8 T cells; donor D4246; 7552-infected CEM cells: 0%
- CD69 Δ Emax; CD8 T cells; donor D4246; THRO-infected CEM cells: 0%
- CD69 Δ Emax; CD8 T cells; donor D4246; uninfected CEM cells: 0%
- CD69 Δ Emax; CD8 T cells; donor D4279; 7552-infected CEM cells: -4%
- CD69 Δ Emax; CD8 T cells; donor D4279; THRO-infected CEM cells: 0%
- CD69 Δ Emax; CD8 T cells; donor D4279; uninfected CEM cells: 0%
